Source: the supplement of paper PMC6755084

B1: minF1; the commonest letter at each place (parent)
chain: GAGACCGCAACTGAAAAGTTGTTATCAGAAATGGATGGGTTGAATTTCTGCACGTAGAAGCAAAAGGC

Variants of: B1
Experiment: fraction ligated after 30 min (ligated reads / total reads); higher = more ligase activity
Details: with F1*subA RNA substrate (template-directed ligation), 42 °C
Outline: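 RNAs for minimized ligase ribozyme variants were transcribed with T7 from PCR-amplified oligo-pool templates and purified on gels. Ligated and unligated species were resolved on gels, converted to cDNA with barcoded primers, and read on a MiSeq with core bases filtered at quality ≥30. Fraction ligated per variant is the ratio of ligated reads to total reads.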

Variant | fraction ligated
A31T G37T | 0.0157
G28T T36C | 0.0288
T25C G28A | 0.15
A24T G34A | 0.0316
A24T G34T | 0.00322
A29C T36G | 0.0261
A27G A35G | 0.332
T25A A35G | 0.0048
A24G A29T | 0.116
T23A A30G | 0.358
G28T T32G | 0.0263
A24C A27C | 0.056
A31G A35G | 0.294
A31G A35T | 0.0156
A31G A35C | 0.022
T32C T36G | 0.00825
A27G G28C | 0.793
A35T A44C | 0.00563
T32G A44T | 0.0536
C26T A27G | 0.544
A29C A31T | 0.842
A29C A31C | 0.791
A24T A44T | 0.00772
A30T A35G | 0.161

Variant | fraction ligated
A27T A29T | 0.832
G34A G37C | 0.00312
G34A G37T | 0.00793
G37T A44T | 0.0093
G34A T36A | 0.0315
A24T C26A | 0.00282
A27C G34C | 0.00877
A24G A31G | 0.0578
A24G G28A | 0.043
A24G G28C | 0.065
A30C A44G | 0.686
T32A G37C | 0.00322
T32A G37T | 0.00279
A30C A35G | 0.159
A31C T32C | 0.0181
G37C A43T | 0.00493
G37C A44G | 0.00293
G37C A44T | 0.00681
G28T G37A | 0.00866
G34T | 0.00484
A29C T32C | 0.0191
T32G A35T | 0.00401
T32G A35C | 0.00432
A29T A35C | 0.00991

Variant | fraction ligated
A29T A35G | 0.153
G33C T36A | 0.0174
G33C T36C | 0.00989
T32A A43T | 0.0778
A27G G33T | 0.807
A30C A31T | 0.771
T32C A35C | 0.00582
T32A | 0.0612
A35C G37A | 0.00266
A24C T32G | 0.00553
G42C A44G | 0.00439
A24T A29G | 0.00599
G33T G42T | 0.0256
T25G A30T | 0.0162
A27T G33C | 0.822
G34C T36G | 0.00561
A30T G42T | 0.0705
A31C G34C | 0.0027
T36G A44C | 0.00345
T36G A44G | 0.00979
A24T T32C | 0.000877
A24T T32G | 0.00134
A30C A43C | 0.0543
T23C A29C | 0.254

Variant | fraction ligated
T23C A29T | 0.288
C26A A43T | 0.00633
C26T A31C | 0.312
A30C G33C | 0.684
A29C G42T | 0.0826
A29C G42C | 0.00616
T23A A43G | 0.00242
T25A A31T | 0.00708
G28C G33C | 0.641
A43T | 0.13
A43G | 0.0856
T23A A27G | 0.234
T23A A27C | 0.0462
C26T A43C | 0.00569
C26T A43T | 0.0127
A27C A31T | 0.455
G28A G34C | 0.00587
G28A G34T | 0.00746
T23A G33A | 0.178
C26G A29T | 0.0347
C26G A29C | 0.0431
A30G T32G | 0.0298
C26A A44G | 0.03
T25A A29G | 0.00957

Variant | fraction ligated
T25A A29C | 0.00458
A29G T32G | 0.0222
G37A A44T | 0.00574
A24C A44C | 0.00359
C26T A30G | 0.5
A31T G42C | 0.0234
A31C G42C | 0.00681
A31C G42A | 0.279
G28C A43C | 0.0652
G28C A43T | 0.0901
A27G A44G | 0.746
T25G A27T | 0.0947
G42T A43G A44G | 0.00264
G37A A43T | 0.00461
A29C | 0.823
A29G | 0.827
G33A G42T | 0.102
T32C A44T | 0.0253
T25C G42A | 0.00331
A35T T36G | 0.00748
A35T T36A | 0.0108
A30T T36G | 0.0328
T25C A44C | 0.00738
T32C G34C | 0.00341

Variant | fraction ligated
T32C G34T | 0.00428
T23C A30C | 0.21
C26T G33A | 0.481
T32G T36C | 0.00404
G28C A44C | 0.596
T25C T36C | 0.00974
T25C T36A | 0.0394
T25C T36G | 0.0541
T23C A44G | 0.0605
G34A A44C | 0.008
G34A A44G | 0.019
A29T A44G | 0.734
A29T A44C | 0.59
A27C G28C | 0.61
A27C G28T | 0.628
A27C G28A | 0.503
G28T A44T | 0.794
C26G A30C | 0.0436
C26G A30T | 0.0435
G42A A44T | 0.0746
G42A A44G | 0.0717
A27G A31G | 0.806
C26A T32G | 0.00324
G28C G37T | 0.0184

Variant | fraction ligated
C26G G34A | 0.0747
G34C G37A | 0.00257
G34C G37T | 0.00343
T36G A43C | 0.00461
T36G A43T | 0.00809
T25G A31G | 0.0115
A24G A44G | 0.0186
A29C A35C | 0.00361
G28A G42A | 0.279
G28A G42T | 0.0941
A24C A30G | 0.0241
C26G G33A | 0.0636
A27T G37A | 0.0217
A27T G37C | 0.00946
C26G G42T | 0.00229
A24G C26A | 0.0171
A24G C26T | 0.00563
G34A A43G | 0.00716
G28C T36G | 0.0324
T36G | 0.0461
A31T A44C | 0.745
A31T A44G | 0.82
T23C G33A | 0.304
